Data: patent publication US20220409550A1

Tests used:
[1] = molecular target: murine PD-L1 on CHO-K1 cells (murine) (UniProt Q9EP73); assay: cell-based or functional assay
[2] = molecular target: murine PD-L1 (50010-M08H, Sino biological) (murine) (UniProt Q9EP73); assay: SPR
[3] = molecular target: murine PD-L2 (50804-M08H, Sino Biological) (murine) (UniProt Q9WUL5); assay: SPR
Chain of murine PD-L2 (50804-M08H, Sino Biological) (murine) (Q9WUL5 20-219, stated change not applied): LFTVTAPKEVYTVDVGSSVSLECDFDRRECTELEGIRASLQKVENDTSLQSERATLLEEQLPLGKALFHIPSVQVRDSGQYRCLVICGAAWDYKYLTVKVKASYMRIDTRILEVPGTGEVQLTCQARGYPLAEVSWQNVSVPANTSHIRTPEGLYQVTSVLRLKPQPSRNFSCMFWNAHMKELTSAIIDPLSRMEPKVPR

Chain of murine PD-L1 on CHO-K1 cells (murine) (Q9EP73 19-290): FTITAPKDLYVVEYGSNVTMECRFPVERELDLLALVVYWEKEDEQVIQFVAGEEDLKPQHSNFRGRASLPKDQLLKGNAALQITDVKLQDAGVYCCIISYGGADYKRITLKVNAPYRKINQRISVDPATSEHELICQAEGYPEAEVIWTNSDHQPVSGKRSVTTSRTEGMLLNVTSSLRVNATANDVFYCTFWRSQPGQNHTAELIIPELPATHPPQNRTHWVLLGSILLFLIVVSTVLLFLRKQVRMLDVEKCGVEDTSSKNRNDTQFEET
Chain of murine PD-L1 (50010-M08H, Sino biological) (murine) (Q9EP73 19-238, stated change not applied): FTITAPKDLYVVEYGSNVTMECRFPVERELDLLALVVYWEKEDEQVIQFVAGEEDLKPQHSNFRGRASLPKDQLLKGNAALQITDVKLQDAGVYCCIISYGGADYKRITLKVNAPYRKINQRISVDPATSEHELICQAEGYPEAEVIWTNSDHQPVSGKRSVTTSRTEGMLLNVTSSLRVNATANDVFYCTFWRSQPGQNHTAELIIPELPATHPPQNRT

With “PD-1-decorated nanocage (PdNC) (from UniProt P02794 1-183)” the half maximal effective concentration (EC50), NFAT-mediated luciferase expression, bioluminescent PD-1/PD-L1 blockade bioassay [1] was 0.761 nM, the Kd [2] was 3.81E-10 ? and the Kd [3] was 2.07E-9 ?.
